Laboratory results from PMC11901700, “A Sweet Almond Globulin Multifunctional Peptide: Identification, In Silico Screening, Restraint Mechanisms to Keap1 and ACE, and Antihypertensive and Ferrous Transport Efficiency” (Nutrients, 2025).
Where no end group is shown, it is not given here.

Columns and labels:
[1] = biological target: T1, ACE (from rabbit lungs) (Oryctolagus cuniculus, UniProt P12822); assay: ACE inhibitory ability (hippuric acid method); format: biochemical; conditions: hippuric acid method, HHL substrate, absorbance at 228 nm; N = 3; read-out: ACE inhibitory activity (IC50)
T1 construct: ACE (0.1 U, from rabbit lungs, purity > 99.7%, CAS: 9015-82-1) was obtained from Sigma-Aldrich; purchased Sigma-Aldrich (St. Louis, MO, USA); host or cells: rabbit lung tissue
T1 sequence (P12822 34-1310): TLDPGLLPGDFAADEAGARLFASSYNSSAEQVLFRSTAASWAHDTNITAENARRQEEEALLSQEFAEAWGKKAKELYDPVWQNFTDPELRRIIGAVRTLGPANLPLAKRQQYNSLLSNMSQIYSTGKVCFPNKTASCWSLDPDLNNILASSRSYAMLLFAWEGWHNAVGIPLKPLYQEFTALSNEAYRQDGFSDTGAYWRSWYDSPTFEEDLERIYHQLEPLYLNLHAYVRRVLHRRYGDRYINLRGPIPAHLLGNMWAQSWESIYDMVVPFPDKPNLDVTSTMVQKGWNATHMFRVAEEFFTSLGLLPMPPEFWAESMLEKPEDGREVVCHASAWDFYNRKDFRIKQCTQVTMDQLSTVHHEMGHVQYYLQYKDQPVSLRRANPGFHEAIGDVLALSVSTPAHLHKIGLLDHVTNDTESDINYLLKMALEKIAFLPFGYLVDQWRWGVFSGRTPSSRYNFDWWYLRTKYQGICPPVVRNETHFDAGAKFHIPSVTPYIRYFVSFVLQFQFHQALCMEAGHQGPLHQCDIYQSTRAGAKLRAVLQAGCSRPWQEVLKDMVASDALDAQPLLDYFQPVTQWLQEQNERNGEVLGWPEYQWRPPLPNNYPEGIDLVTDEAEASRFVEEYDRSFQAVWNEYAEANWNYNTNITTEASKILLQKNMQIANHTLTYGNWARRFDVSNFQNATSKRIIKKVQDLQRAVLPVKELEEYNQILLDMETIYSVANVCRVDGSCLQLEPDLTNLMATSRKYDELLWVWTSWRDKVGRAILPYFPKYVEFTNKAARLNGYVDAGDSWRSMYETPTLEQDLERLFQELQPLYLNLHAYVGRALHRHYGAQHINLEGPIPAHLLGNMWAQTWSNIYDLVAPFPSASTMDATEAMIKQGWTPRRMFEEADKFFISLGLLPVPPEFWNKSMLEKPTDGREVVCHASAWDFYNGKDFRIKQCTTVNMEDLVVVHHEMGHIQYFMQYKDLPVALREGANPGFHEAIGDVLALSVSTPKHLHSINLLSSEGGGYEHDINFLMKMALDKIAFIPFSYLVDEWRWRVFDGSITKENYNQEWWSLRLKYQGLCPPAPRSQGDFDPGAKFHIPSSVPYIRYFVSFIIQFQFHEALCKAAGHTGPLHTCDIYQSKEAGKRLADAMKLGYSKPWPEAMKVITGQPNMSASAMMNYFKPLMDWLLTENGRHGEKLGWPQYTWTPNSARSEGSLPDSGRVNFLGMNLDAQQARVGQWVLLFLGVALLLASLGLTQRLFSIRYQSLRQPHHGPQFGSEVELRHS
Excerpt: The hippuric acid method was used to measure the samples’ inhibitory ability towards ACE, following the same procedures as Zheng et al.. The absorbance at 228 nm was the hippuric acid content and represented ACE activity; therefore, the inhibitory ability of samples towards ACE was defined as the percentage of reduction in the absorption at 228 nm between the control and sample groups. Moreover, the ACE inhibitory kinetic of SAGH peptides was investigated by employing a Lineweaver–Burk plot with N-hippuryl-L-histidyl-L-leucine (HHL, 0.13–1.32 mmol/L) as the substrate.
As described by Wu et al., the simulative gastric digestive fluid consisted of sodium chloride (0.18 mol/L), ultrapure water (180 mL), and 0.40 mg/mL of pepsin. The simulation intestinal digestive juice was composed of NaHCO3, ([…]), bile salt (3 g/100 mL), pancreatin (0.35 mg/mL), and 180 mL of ultrapure water. The antihypertensive and antioxidant SAGH peptides (5 mg/mL, 60 mL) were first hydrolyzed using 150 mL of simulative gastric fluid at 37 °C and 140 rpm for 90 min. The mixture was adjusted to pH 7.0, and 180 mL of the simulative intestinal hydrolysis fluid was added and stirred at 37 °C for 2 h. After boiling for 6 min, the mixture was cooled with running water to room temperature. The ACE inhibition capacity and antioxidant ability of the treated SAGH peptides were detected and compared to those of the […] SAGH peptides.

[2] = test system: spontaneously hypertensive rats (SHRs); assay: Effects on blood pressures of spontaneously hypertensive rats; format: in vivo, rat
Protocol: Spontaneously hypertensive rats (SHRs, each weighting approximately 250 g, 14 weeks old) were obtained from Vitonglihua Test Animal Biotech. Co., Ltd. (Beijing, China) and used to investigate the hypotensive ability of ACE inhibitory and antioxidant SAGH peptides. After 7 days of adaptation, the SHRs were assigned to the blank, positive, SAGH peptides, and SAGH peptide–ferrous chelate groups (each group contained six SHRs), which were orally administered NaCl ([…]), captopril (14 mg per body weight kg), peptides (50, 150, and 200 mg per body weight kg), and peptide–ferrous chelates (50, 150, and 200 mg per body weight kg) every day, respectively. At 0, 120, 360, and 600 min after oral administration, the systolic and diastolic blood pressures and heart rates of the SHRs were measured using a NIBP-M1 Rat-tail noninvasive blood pressure monitor (Yuyan Scientific Instrument Co., Ltd., Shanghai, China) following the tail cuff method.

[3] = Gastrointestinal stability of peptide–ferrous chelate (ferrous solubility in simulated digestion); format: in vitro ADME
Protocol: Next, the intestinal digestive fluid was added, and digestion was continued at pH 6.8 for 2 h in the EDZF-C002 thermostatic vibrator ([…], 175 rpm).

In the case of “PMYGGGMV–ferrous chelate: chelate prepared by reacting the peptide with FeCl2 at pH 6.5 (also: ferrous iron chelate (reaction with FeCl2))”, the IC50 [1] is reported as 116 µM, the “dose dependence of blood pressure lowering effect” value ([2]; oral, 50, 150 and 200 mg/kg body weight, p > 0.05) is reported as “not dose-dependent” and the “effect on diastolic and systolic blood pressures” value ([2]; oral, 50–200 mg/kg body weight, from 1 h of dosing, tail cuff method, p < 0.05) is reported as “apparently lowered the diastolic and systolic blood pressures”. For the same substance, the “ferrous solubility during gastric digestion” value ([3]; 0–90 min, simulated gastric fluid pH 1.9, 37 °C, 175 rpm, soluble ferrous by o-phenanthroline every 30 min, N = 3) was “relatively stable”, the “ferrous solubility during intestinal digestion” value ([3]; 91–240 min, intestinal digestive fluid pH 6.8, soluble ferrous by o-phenanthroline, p < 0.05) was “apparently decreased” and the “ferrous solubility compared with ferrous lactate and ferrous chloride” value ([3]; from 90 to 150 min of simulated gastrointestinal digestion, p < 0.05) was “much higher than those of ferrous lactate and ferrous chloride”.
